In assay [1] the target is human BNP(1-32) (human). Description: sandwich ELISA, L21016 capture, mAb detection; BNP(1-32) 625 pg/ml. (In general: In an ELISA, binding on a coated surface is turned into a signal by an enzyme label.)
In assay [2] the target is human proBNP(1-108), recombinant, produced in E. coli (non-glycosylated) (human) (UniProt P16860). Description: sandwich ELISA, hinge 76 capture, peroxidase-mAb detection; proBNP(1-108) 2,500 pg/ml.
Assay [3] shares this target. Description: sandwich ELISA, hinge 76 capture, peroxidase-mAb detection; proBNP(1-108) 5,000 pg/ml.
Assay [4] has as its target human BNP(1-32) (human). As to the kind of experiment: sandwich ELISA, L21016 capture, mAb detection; BNP(1-32) 5,000 pg/ml.
In assay [5] the target is human proBNP(1-108), recombinant, produced in E. coli (non-glycosylated) (human) (UniProt P16860). Description: sandwich ELISA, hinge 76 capture, peroxidase-mAb detection; proBNP(1-108) 156.25 pg/ml.
The target of assay [6] is human BNP(1-32) (human). As to the kind of experiment: sandwich ELISA, L21016 capture, mAb detection; BNP(1-32) 312.5 pg/ml.
Assay [7] addresses human proBNP(1-108), recombinant, produced in E. coli (non-glycosylated) (human) (UniProt P16860). As to the kind of experiment: sandwich ELISA, hinge 76 capture, peroxidase-mAb detection; proBNP(1-108) 20 pg/ml.
Assay [8] shares this target. As to the kind of experiment: sandwich ELISA, hinge 76 capture, peroxidase-mAb detection; proBNP(1-108) 625 pg/ml.
Assay [9] shares this target. Description: sandwich ELISA, hinge 76 capture, peroxidase-mAb detection; proBNP(1-108) 39 pg/ml.
Assay [10] has the same target. Description: sandwich ELISA, hinge 76 capture, peroxidase-mAb detection; proBNP(1-108) 1,250 pg/ml.
Assay [11] shares this target. As to the kind of experiment: sandwich ELISA, hinge 76 capture, peroxidase-mAb detection; proBNP(1-108) 78 pg/ml.
For assay [12], the target named is human BNP(1-32) (human). As to the kind of experiment: sandwich ELISA, L21016 capture, mAb detection; BNP(1-32) 1,250 pg/ml.
The target in assay [13] is human BNP(1-32) (human). As to the kind of experiment: sandwich ELISA, L21016 capture, mAb detection; BNP(1-32) 0 pg/ml (blank).
For assay [14], the target named is human proBNP(1-108), recombinant, produced in E. coli (non-glycosylated) (human) (UniProt P16860). As to the kind of experiment: sandwich ELISA, hinge 76 capture, peroxidase-mAb detection; proBNP(1-108) 10,000 pg/ml.
Assay [15] deals with human BNP(1-32) (human). As to the kind of experiment: sandwich ELISA, L21016 capture, mAb detection; BNP(1-32) 10,000 pg/ml.
Assay [16] has as its target human proBNP(1-108), recombinant, produced in E. coli (non-glycosylated) (human) (UniProt P16860). As to the kind of experiment: sandwich ELISA, hinge 76 capture, peroxidase-mAb detection; proBNP(1-108) 0 pg/ml (blank).
In assay [17] the target is human BNP(1-32) (human). As to the kind of experiment: sandwich ELISA, L21016 capture, mAb detection; BNP(1-32) 2,500 pg/ml.
Assay [18] concerns the target human BNP(1-32) (human). Description: sandwich ELISA, L21016 capture, mAb detection; BNP(1-32) 156.25 pg/ml.
The target of assay [19] is human proBNP(1-108), recombinant, produced in E. coli (non-glycosylated) (human) (UniProt P16860). Description: sandwich ELISA, hinge 76 capture, peroxidase-mAb detection; proBNP(1-108) 312.5 pg/ml.
The target in assay [20] is human BNP(1-32) (human). As to the kind of experiment: sandwich ELISA, L21016 capture, mAb detection; BNP(1-32) 39 pg/ml.
Assay [21] has as its target human BNP(1-32) (human). As to the kind of experiment: sandwich ELISA, L21016 capture, mAb detection; BNP(1-32) 20 pg/ml.
Assay [22] concerns the target human BNP(1-32) (human). As to the kind of experiment: sandwich ELISA, L21016 capture, mAb detection; BNP(1-32) 78 pg/ml.
The target in assay [23] is human BNP(1-32) (human). Description: sandwich ELISA, L21016 capture, BNP(1-32) 5 ng/ml; detection by 50B7 0.5 ug/ml alone (no 20G7).

human proBNP(1-108), recombinant, produced in E. coli (non-glycosylated) (human), sequence (P16860 27-134): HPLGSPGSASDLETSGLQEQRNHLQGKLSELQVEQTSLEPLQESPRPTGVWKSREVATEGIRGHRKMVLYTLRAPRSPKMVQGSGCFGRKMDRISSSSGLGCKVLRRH
human BNP(1-32) (human), sequence (peptide, as listed by the source): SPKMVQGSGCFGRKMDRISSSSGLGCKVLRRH

Consider “24C5 monoclonal antibody (HyTest, Turku, Finland)”, for which the optical density (OD) at 490 nm with human BNP(1-32) (human) [1] was 0.059 OD; in the assay with human BNP(1-32) (human) [4], 0.068 OD; with human BNP(1-32) (human) [6], 0.063 OD; in the assay with human BNP(1-32) (human) [12], 0.056 OD; with human BNP(1-32) (human) [13], 0.071 OD; with human BNP(1-32) (human) [15] it was 0.077 OD. Besides, the optical density (OD) at 490 nm came out at 0.067 OD in the assay with human BNP(1-32) (human) [17]; 0.071 OD with human BNP(1-32) (human) [18]; 0.055 OD in the assay with human BNP(1-32) (human) [20]; 0.068 OD in the assay with human BNP(1-32) (human) [21]; 0.052 OD with human BNP(1-32) (human) [22]. Besides, the optical density (OD) in assay [2] amounted to 0.069 OD; in assay [3] it was 0.117 OD; in assay [5], 0.055 OD; in [7], 0.052 OD; in assay [8] it was 0.07 OD; in [9] it was 0.056 OD. The optical density (OD) in assay [10] was 0.068 OD; in assay [11], 0.056 OD; in [14], 0.22 OD; in assay [16], 0.044 OD; in assay [19] it was 0.035 OD.

Substance “50B7 monoclonal antibody (HyTest, Finland)” showed an Optical Density 490 nm with human BNP(1-32) (human) [23] of 1.3 OD.

In the case of “26E2 monoclonal antibody (HyTest, Turku, Finland)”, the optical density (OD) at 490 nm was determined as 0.029 OD with human BNP(1-32) (human) [1]; 0.041 OD in the assay with human BNP(1-32) (human) [4]; 0.027 OD with human BNP(1-32) (human) [6]; 0.031 OD in the assay with human BNP(1-32) (human) [12]; 0.022 OD in the assay with human BNP(1-32) (human) [13]; 0.048 OD in the assay with human BNP(1-32) (human) [15]. Moreover, the optical density (OD) at 490 nm in the assay with human BNP(1-32) (human) [17] came out at 0.035 OD; with human BNP(1-32) (human) [18] it was 0.032 OD; with human BNP(1-32) (human) [20], 0.032 OD; in the assay with human BNP(1-32) (human) [21], 0.034 OD; with human BNP(1-32) (human) [22], 0.055 OD. Besides, the optical density (OD) worked out at 0.031 OD in [2]; 0.041 OD in [3]; 0.027 OD in assay [5]; 0.028 OD in assay [7]; 0.024 OD in assay [8]; 0.028 OD in assay [9]. In addition, the optical density (OD) in assay [10] was 0.024 OD; in assay [11] it was 0.033 OD; in assay [14], 0.158 OD; in assay [16], 0.024 OD; in [19], 0.028 OD.
